Patent CN110590951A (ANMENGDE MEDICAL TECH SHANGHAI CO LTD, dated 2019)

Legend:
[1] = biological target: T1, 重组人ROR1蛋白 (recombinant human ROR1 protein, ACROBiosystems RO1-H522y) (human, UniProt Q01973 30-403); experiment: ELISA, recombinant human ROR1 coated at 1 μg/mL, G3 titrated from 0.6 μg/ml
T1 construct: Bought protein

[2] = biological target: T2, 重组鼠ROR1蛋白 (recombinant mouse ROR1 protein, ACROBiosystems RO1-M5221) (mouse, UniProt Q9Z139 30-403); experiment: ELISA, recombinant mouse ROR1 coated at 1 μg/mL, G3 titrated from 15 μg/ml
T2 construct: Bought protein

[3] = biological target: T3, 人ROR1 on the cell surface (endogenous on JeKo-1 cells; overexpressed on CHO-K1-hROR1 cells) (human, UniProt Q01973 30-937); experiment: Flow cytometry on JeKo-1 cells (endogenous ROR1), G3 titrated from 20 μg/mL
T3 construct: whole, on cells; also called JeKo-1细胞ROR1蛋白; CHO-K1-hROR1细胞表面的ROR1

[4] = biological target: T4, 人ROR1蛋白卷曲(Frizzled)域 (recombinant ROR1 Frizzled domain, ACROBiosystems RO1-H5222) (human, UniProt Q01973 165-305); experiment: ELISA, recombinant ROR1 Frizzled domain coated at 1 μg/mL, G3 titrated from 20 μg/ml
T4 construct: domain: 卷曲(Frizzled)域; Bought domain protein; also called 卷曲结构域; Frizzled结构域
T4 sequence (Q01973 165-305 limits assumed): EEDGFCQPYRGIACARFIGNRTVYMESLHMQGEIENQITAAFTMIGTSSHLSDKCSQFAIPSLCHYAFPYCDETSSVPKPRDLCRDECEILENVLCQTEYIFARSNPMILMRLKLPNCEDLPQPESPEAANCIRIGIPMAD

T2 sequence (Q9Z139 30-403 limits assumed): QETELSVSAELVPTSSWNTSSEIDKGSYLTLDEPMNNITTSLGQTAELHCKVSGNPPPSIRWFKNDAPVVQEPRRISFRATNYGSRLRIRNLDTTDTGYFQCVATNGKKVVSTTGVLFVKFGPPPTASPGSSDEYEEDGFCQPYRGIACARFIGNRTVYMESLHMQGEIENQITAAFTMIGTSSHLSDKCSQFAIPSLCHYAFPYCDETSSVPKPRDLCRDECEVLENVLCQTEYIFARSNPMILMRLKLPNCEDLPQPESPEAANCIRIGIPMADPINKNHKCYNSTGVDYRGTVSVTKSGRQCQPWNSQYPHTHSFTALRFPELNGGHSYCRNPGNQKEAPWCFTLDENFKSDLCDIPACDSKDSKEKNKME
T1 sequence (Q01973 30-403 limits assumed): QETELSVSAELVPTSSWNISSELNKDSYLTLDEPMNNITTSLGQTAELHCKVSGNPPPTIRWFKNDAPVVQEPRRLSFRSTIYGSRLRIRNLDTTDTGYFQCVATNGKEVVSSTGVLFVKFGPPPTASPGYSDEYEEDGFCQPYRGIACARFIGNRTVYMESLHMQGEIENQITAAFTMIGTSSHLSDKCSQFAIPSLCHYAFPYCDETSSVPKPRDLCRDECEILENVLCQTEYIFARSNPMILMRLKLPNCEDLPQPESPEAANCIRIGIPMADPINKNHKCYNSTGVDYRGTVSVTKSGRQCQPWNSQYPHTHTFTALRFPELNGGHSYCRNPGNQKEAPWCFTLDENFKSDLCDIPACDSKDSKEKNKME
T3 sequence (Q01973 30-937): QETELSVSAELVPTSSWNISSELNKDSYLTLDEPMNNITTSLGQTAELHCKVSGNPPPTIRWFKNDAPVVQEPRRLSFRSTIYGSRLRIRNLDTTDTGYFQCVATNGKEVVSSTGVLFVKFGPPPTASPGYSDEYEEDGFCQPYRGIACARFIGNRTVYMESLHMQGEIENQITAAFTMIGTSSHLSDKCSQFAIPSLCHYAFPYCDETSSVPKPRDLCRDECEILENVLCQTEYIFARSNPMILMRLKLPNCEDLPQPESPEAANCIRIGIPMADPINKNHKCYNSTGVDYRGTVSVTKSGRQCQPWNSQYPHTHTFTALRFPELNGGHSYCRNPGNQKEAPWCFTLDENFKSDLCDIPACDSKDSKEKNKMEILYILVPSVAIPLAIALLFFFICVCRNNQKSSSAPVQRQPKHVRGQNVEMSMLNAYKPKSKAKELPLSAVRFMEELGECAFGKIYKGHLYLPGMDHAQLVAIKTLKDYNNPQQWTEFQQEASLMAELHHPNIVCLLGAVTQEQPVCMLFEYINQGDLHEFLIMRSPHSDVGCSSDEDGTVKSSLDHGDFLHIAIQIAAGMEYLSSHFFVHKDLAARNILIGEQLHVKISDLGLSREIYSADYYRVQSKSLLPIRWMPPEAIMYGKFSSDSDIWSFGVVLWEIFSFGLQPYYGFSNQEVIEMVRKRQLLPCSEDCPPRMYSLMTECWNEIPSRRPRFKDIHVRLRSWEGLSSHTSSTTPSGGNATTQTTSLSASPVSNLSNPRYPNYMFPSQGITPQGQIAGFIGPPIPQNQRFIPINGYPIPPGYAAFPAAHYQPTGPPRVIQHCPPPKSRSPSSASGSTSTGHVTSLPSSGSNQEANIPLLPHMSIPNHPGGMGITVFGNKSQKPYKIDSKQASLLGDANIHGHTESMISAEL

binding result [1]: binds
binding result [2]: binds
binding result [3]: binds
binding result [4]: binds
B1: 抗ROR1的全人源单克隆抗体G3 (antibody, human IgG1, kappa, V domains shown)
VH: QVQLQQWGAGLLKPSETLSLTCAVYGGSFSGYYWSWIRQPPGKGLEWIGEINHSGSTSYNPSLKSRVTISVDTSKNQFSLKLSSVTAADTAVYYCARGHSSGWYRRYFDLWGRGTLVTVSS
VL: IVLTQSPATLSLSPGERATLSCRASQSVSSYLAWYQQKPGQAPRLLIYDASNRATGIPAKFSGSGSGTDFTLTISSLEPEDFAVYYCQQRSNWPPTFGGGTKVEIKR
notes: Full-length fully human IgG1/kappa, expressed in Expi-CHO-S and purified on Protein A (150 kDa); also called G3单克隆抗体; 抗人ROR1抗体G3
